Measured values published in the supplement of paper PMC7125110.
± gives the standard error. For part of these data: This sample holds only a part of the variants without activity.

B1: glmS ribozyme (parent)
chain: AUAAAAGCGCCAGAACUACAGAAAUGUAGUUGACGAGGAGGAGGUUUAUCGAAUUUUCGGCGGAUGCCUCCAAA

Assays:
Settings in all cases: with glucosamine-6-phosphate
glucosamine-6-phosphate [1] = variants of: B1; assay: kcat; higher = faster cleavage; RNA array
In short: (§1)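 Glucosamine-6-phosphate (40 μM to 10 mM) in HEPES/KCl/Mg(OAc)2 buffer was flowed over sequenced MiSeq chips, and tiles were imaged over ~14 h. Barcoded ribozyme variants there had been transcribed in situ by E. coli RNA polymerase and were tracked through a hybridised Cy3 probe at 37 °C. One- or two-exponential decay fits to per-tile medians, normalised to baseline and to non-cleaving reference variants, gave kobs. kcat and KM came from weighted Michaelis–Menten fits across concentrations.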

glucosamine-6-phosphate [2] = variants of: B1; assay: KM; higher = weaker cofactor use; RNA array
In short: as §1

glucosamine-6-phosphate [3] = variants of: B1; assay: self-cleavage kobs at 640 uM GlcN6P; higher = faster cleavage; RNA array
In short: as §1

glucosamine-6-phosphate [4] = variants of: B1; assay: self-cleavage kobs at 2500 uM GlcN6P; higher = faster cleavage; RNA array
In short: as §1

glucosamine-6-phosphate [5] = variants of: B1; assay: self-cleavage kobs at 10000 uM GlcN6P; higher = faster cleavage; RNA array
In short: as §1

glucosamine-6-phosphate [6] = variants of: B1; assay: self-cleavage kobs at 40 uM GlcN6P; higher = faster cleavage; RNA array
In short: as §1

glucosamine-6-phosphate [7] = variants of: B1; assay: self-cleavage kobs at 160 uM GlcN6P; higher = faster cleavage; RNA array
In short: as §1

| Variant | kcat (glucosamine-6-phosphate [1]) [s⁻¹] | KM (glucosamine-6-phosphate [2]) [µM] | self-cleavage kobs at 640 uM GlcN6P (glucosamine-6-phosphate [3]) [s⁻¹] | self-cleavage kobs at 2500 uM GlcN6P (glucosamine-6-phosphate [4]) [s⁻¹] | self-cleavage kobs at 10000 uM GlcN6P (glucosamine-6-phosphate [5]) [s⁻¹] | self-cleavage kobs at 40 uM GlcN6P (glucosamine-6-phosphate [6]) [s⁻¹] | self-cleavage kobs at 160 uM GlcN6P (glucosamine-6-phosphate [7]) [s⁻¹] |
| --- | --- | --- | --- | --- | --- | --- | --- |
| G29U U46A | 0.000356 ± 1.1e-05 | 2530 ± 150 | 7.15e-05 ± 1.2e-05 | 0.000184 ± 3.7e-05 | 0.000282 ± 3.6e-05 |  |  |
| G29C A52U C70G | 2.41e-05 ± 5.5e-06 |  |  |  |  | < 1e-05 |  |
| U30C | 0.000469 ± 2.4e-05 | 1950 ± 180 | 0.000113 ± 2e-06 | 0.000759 ± 0.00027 | 0.000395 ± 6.5e-06 |  | 4.18e-05 ± 1.9e-06 |
| U30A | 0.0142 ± 0.0014 | 2550 ± 310 | 0.00244 ± 0.00012 | 0.00727 ± 0.00029 | 0.0114 ± 0.00039 | 0.000227 ± 5e-06 | 0.000758 ± 6.8e-05 |
| U30A G41A | 0.000441 ± 3.4e-05 | 6390 ± 730 | 3.92e-05 ± 1.2e-05 | 0.000127 ± 2.3e-05 | 0.000265 ± 5.7e-05 |  |  |
| U30A G41U | 0.000138 ± 2.1e-05 | 608 ± 300 | 6.73e-05 ± 9.9e-06 | 0.000147 ± 1.8e-05 | 0.000117 ± 1.4e-05 |  |  |
| G29U U30G | 0.00393 ± 0.0013 | 1780 ± 820 | 0.00131 ± 0.00023 | 0.00182 ± 0.00035 | 0.00493 ± 0.001 | 9.59e-05 ± 1.7e-05 | 0.000286 ± 5.6e-05 |
| G29U U30A | 0.000337 ± 3.2e-05 | 1900 ± 380 | 8.73e-05 ± 1.5e-05 | 0.000198 ± 3.2e-05 | 0.000278 ± 4e-05 |  |  |
| U30A G59A | 3.04e-05 ± 2.1e-06 | 2080 ± 490 |  |  | 2.5e-05 ± 1.2e-05 | < 1e-05 |  |
| U30A G37A | 0.000308 ± 0.00011 |  | 6.25e-05 ± 1.2e-05 | 0.000141 ± 2.9e-05 | 0.000302 ± 7.7e-05 |  | 3.75e-05 ± 1.2e-05 |
| G29U C67A | 0.000685 ± 0.00017 | 812 ± 370 | 0.000276 ± 3.9e-05 | 0.000437 ± 5.6e-05 | 0.000787 ± 8.4e-05 | 5.58e-05 ± 7.8e-06 | 9.85e-05 ± 1.4e-05 |
| G29U A53U | 0.00357 ± 0.00055 | 1600 ± 360 | 0.00114 ± 0.00013 | 0.00252 ± 0.00027 | 0.00266 ± 0.00038 | 8.45e-05 ± 1e-05 | 0.000275 ± 4.9e-05 |
| G29C C71U | 0.00146 ± 0.0004 | 1590 ± 700 | 0.000356 ± 4.9e-05 | 0.000805 ± 9.7e-05 | 0.00143 ± 0.00015 | 6.23e-05 ± 7.6e-06 | 0.000119 ± 1.8e-05 |
| U30A U49G | 0.000169 ± 3.4e-05 | 3780 ± 1600 |  | 7.22e-05 ± 1.2e-05 | 0.000119 ± 2.1e-05 |  |  |
| G29U C50A | < 1e-05 |  |  |  |  | < 1e-05 |  |
| G29U C50U | 1.34e-05 ± 9.1e-07 | 3520 ± 700 |  |  |  |  | < 1e-05 |

| Variant | kcat (glucosamine-6-phosphate [1]) [s⁻¹] | KM (glucosamine-6-phosphate [2]) [µM] | self-cleavage kobs at 640 uM GlcN6P (glucosamine-6-phosphate [3]) [s⁻¹] | self-cleavage kobs at 2500 uM GlcN6P (glucosamine-6-phosphate [4]) [s⁻¹] | self-cleavage kobs at 10000 uM GlcN6P (glucosamine-6-phosphate [5]) [s⁻¹] | self-cleavage kobs at 40 uM GlcN6P (glucosamine-6-phosphate [6]) [s⁻¹] | self-cleavage kobs at 160 uM GlcN6P (glucosamine-6-phosphate [7]) [s⁻¹] |
| --- | --- | --- | --- | --- | --- | --- | --- |
| G29C C58A | 0.000126 ± 8e-06 | 1420 ± 280 | 3.49e-05 ± 1.2e-05 | 8.42e-05 ± 1.4e-05 | 0.000108 ± 1.5e-05 |  |  |
| G29C G41U | 5.56e-05 ± 4e-07 | 2090 ± 57 |  | 3.01e-05 ± 1.1e-05 | 4.6e-05 ± 7.7e-06 |  |  |
| G29U U49A | < 1e-05 |  |  |  | < 1e-05 | < 1e-05 | < 1e-05 |
| G29U U49G | 0.000125 ± 2e-05 | 5270 ± 1900 |  | 3.79e-05 ± 1.7e-05 | 8.25e-05 ± 1.9e-05 |  |  |
| G29C C61A | 1.76e-05 ± 3.3e-06 |  |  |  |  | < 1e-05 |  |
| U30A A33C | 6.48e-05 ± 3e-06 | 4930 ± 560 |  |  | 4.35e-05 ± 1.2e-05 |  |  |
| G29C C68U | 0.000269 ± 5.9e-05 | 959 ± 460 | 0.000112 ± 8.7e-06 | 0.000172 ± 1.2e-05 | 0.000368 ± 3.6e-05 | 2.38e-05 ± 1.1e-05 | 4.12e-05 ± 5.7e-06 |
| G29C G40C | 9.96e-05 ± 4.4e-06 | 1020 ± 150 | 3.65e-05 ± 1.5e-05 | 7.4e-05 ± 1.6e-05 | 8.84e-05 ± 1.8e-05 |  |  |
| U30A C50U | 1.13e-05 ± 4.2e-06 |  |  |  |  |  |  |
| G29C C67A | 0.000293 ± 7.2e-05 |  | 0.000128 ± 1.9e-05 | 0.000163 ± 3.2e-05 | 0.000363 ± 5.2e-05 |  | 5.79e-05 ± 1.3e-05 |
| G29C U57A | 4.62e-05 ± 8e-06 |  |  |  | 3.78e-05 ± 1.1e-05 |  |  |
| G29U C68U | 0.0008 ± 6.2e-05 | 1710 ± 230 | 0.00022 ± 2.5e-05 | 0.000435 ± 5.5e-05 | 0.000719 ± 7.8e-05 | 2.51e-05 ± 1e-05 | 6.87e-05 ± 1e-05 |
| G29C U46C | 9.55e-05 ± 4.5e-06 | 535 ± 120 | 5.09e-05 ± 1.5e-05 | 8.67e-05 ± 2.2e-05 | 8.84e-05 ± 1.4e-05 |  |  |
| G29C U46G | 0.000315 ± 9.7e-05 |  | 7.38e-05 ± 2.1e-05 | 0.000285 ± 7.3e-05 | 0.000234 ± 7.5e-05 |  |  |
| U30A C70A | 6.65e-05 ± 2.4e-05 |  |  | 7.75e-05 ± 1.6e-05 | 5.12e-05 ± 1.3e-05 |  |  |
| G29U U45C | 0.000348 ± 1.1e-05 | 2130 ± 200 | 7.89e-05 ± 3.4e-05 | 0.000204 ± 0.0001 | 0.000286 ± 4.9e-05 |  |  |
